Data from US20140370023A1 (HENRY M JACKSON FOUNDATION FOR THE ADVANCEMENT OF MILITARY …, published 2014).

Key:
[1] = target: T1, human ERG3 (wild type ERG3 protein, 53 kDa) (human, UniProt P11308 1-479); assay: sandwich ELISA on ERG3 protein lysate, 9FY titrated by fold dilution, absorbance at 450 nm; competitor: immunizing polypeptide
T1 construct: Expressed heterologously in HEK-293 cells (pIRES-EGFP(CMV)-ERG3), as protein lysate in the ELISA, or in LNCaP cells by Ad-ERG3 adenovirus; also called ERG3 antigen
T1 sequence: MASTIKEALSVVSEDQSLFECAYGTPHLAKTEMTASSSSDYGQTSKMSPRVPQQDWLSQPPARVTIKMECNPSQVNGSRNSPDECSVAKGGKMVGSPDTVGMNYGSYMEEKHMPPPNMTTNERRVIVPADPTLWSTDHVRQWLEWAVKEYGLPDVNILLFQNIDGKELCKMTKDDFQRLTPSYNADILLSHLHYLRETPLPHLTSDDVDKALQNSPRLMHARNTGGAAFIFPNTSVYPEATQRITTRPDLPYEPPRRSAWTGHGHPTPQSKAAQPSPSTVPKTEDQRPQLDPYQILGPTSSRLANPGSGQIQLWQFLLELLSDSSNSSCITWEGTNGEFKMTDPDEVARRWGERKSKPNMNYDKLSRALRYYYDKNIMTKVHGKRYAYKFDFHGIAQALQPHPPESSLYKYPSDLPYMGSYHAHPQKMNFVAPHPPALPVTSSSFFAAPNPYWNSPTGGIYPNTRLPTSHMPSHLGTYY

[2] = target: T2, immunizing polypeptide (amino acids 42-66 of SEQ ID NO: 1) (human); assay: direct ELISA, peptides plated at 1 to 1000 ng/mL (x axis 'ERG, ng/mL', log scale), probed with 9FY at 1:10,000, absorbance at 450 nm
T2 construct: Chemically synthesized; also called ERG 42-66 polypeptide
T2 peptide: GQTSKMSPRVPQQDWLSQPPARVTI
Method: Various concentrations of the immunizing polypeptide and two control polypeptides were plated in wells for ELISA and were probed with 1:10,000 dilution of 9FY antibody. Y-axis indicates absorbance values at 450 nm. On the X-axis the log 10 concentration of the ERG immunizing polypeptide and control polypeptides is shown in ng/ml. […] In sandwich ELISA assay, ERG3 protein lysates were plated in multi-well format plates and were assayed with various concentrations of 9FY antibody in the presence (white bar) or absence of the immunizing polypeptide (shaded bar). Fold dilution is marked on the X-axis. Antibody titration values are marked by shaded bars.
In an ELISA assay, we assessed the sensitivity and specificity of the 9FY antibody measuring the titer of various concentrations of the immunizing polypeptide (i.e. amino acids 42-66 of SEQ ID NO: 1). For direct ELISA, plates were first coated with 100 μl of ERG3 antigen at 1 ng/ml, 10 ng/ml, 100 ng/ml and 1 μg/ml and incubated for 16 h at 4° C. on a shaker before washing the plate five times with PBSt (300 μl/well). […] Absorbance was measured at 450 nm on a […]® Ascent (Thermo Scientific, Waltham, Mass.) ELISA plate reader according to the manufacturer's recommendation and the absorbance were plotted against antibody dilution. […]

[3] = target: T3, human FLi1 protein with N-terminal FLAG tag (human, UniProt Q01543 1-452, limits assumed); assay: Western blot of transiently expressed FLAG-tagged protein
T3 construct: not shown: N-terminal FLAG tag
T3 sequence (looked up): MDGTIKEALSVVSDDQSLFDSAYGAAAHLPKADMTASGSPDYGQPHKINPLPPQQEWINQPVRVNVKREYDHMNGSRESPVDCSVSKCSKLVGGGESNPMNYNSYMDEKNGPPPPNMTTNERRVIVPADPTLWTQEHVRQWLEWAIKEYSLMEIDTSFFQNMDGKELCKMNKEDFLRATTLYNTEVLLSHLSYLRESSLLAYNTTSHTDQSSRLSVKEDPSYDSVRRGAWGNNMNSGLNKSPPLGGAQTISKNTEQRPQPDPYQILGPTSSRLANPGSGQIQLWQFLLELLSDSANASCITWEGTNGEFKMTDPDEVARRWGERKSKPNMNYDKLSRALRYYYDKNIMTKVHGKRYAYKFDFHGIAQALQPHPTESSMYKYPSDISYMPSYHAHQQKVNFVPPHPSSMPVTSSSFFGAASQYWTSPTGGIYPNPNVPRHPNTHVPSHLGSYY
Method: Therefore, the 9FY antibody was tested to see if it can discriminate between human ERG3 and the human FLi1 protein using Western blot assays. In this assay, transiently expressed human ERG3 (encoded by TMPRSS2/ERG3 construct) or human FLi1 protein was evaluated with the 9FY antibody.

binding result [1]: binds
binding result [2]: binds
binding result [3]: no binding
B1: 9FY antibody (monoclonal antibody produced by the hybridoma clone 9FY) (antibody, V domains shown)
VH: QIQLVQSGPDLKKPGETVKISCKASGYTFTNYGINWVKQAPGKGFKWMGWIDTYTGEPTYVDDFKGRFVFSLETSASTAYLQINNLKNEDTATYFCVRKRAYDYEIYWGQGTPLTVSS
VL: ENVLTQSPAIMSASLGEKVTLSCRASSSVYYMFWYQQKSDASPKLWIYYTSNLAPGVPARFSGSGSGNSYSLTISSVEGEDAATYYCLQFSTSPWTFGGGTKLEIKR
notes: Mouse (Balb/C) hybridoma antibody purified from ascites over Protein G; sub-type determined to be IgG; also called ERG-MAb; 9FY monoclonal antibody
